These results are taken from patent US12428446B2, “Peptide compound or pharmaceutically acceptable salt thereof” (Eyebio Korea, priority 2019, dated 2025).

Primed or numbered codes have the meaning given here. Where no end group is shown, it is not given here. [ ]: non-standard residue; d: D form. The star is where a group is joined. Pro(4-methylene) = C=C1CN[C@H](C(=O)O)C1; Asu′ = aspartimide (aminosuccinimide); Hyp = O=C(O)[C@@H]1C[C@@H](O)CN1; dHyp = O=C(O)[C@H]1C[C@H](O)CN1; Aib = CC(C)(N)C(=O)O; OiPr = CC(C)O*

This series can be described thus: Evaluation of dissolution stability (content change on storage in dissolved state). The class given is physicochemical. The conditions noted are these: 1 mg/1 ml dissolved state, 40° C. and RH 75%.

Take “Hyp-Gly-Gln-Asp-Aib-Leu-Ala ([Hyp]GQD[Aib]LA) [Example 83]”: the “Day 1 content (%)” value was 95.35%, the “Day 3 content (%)” value stood at 94.70%, the “Day 7 content (%)” value amounted to 94.00% and the “Initial content (%)” value worked out at 95.42%.

For the substance LGLAGPK [Example 20], the “Day 1 content (%)” value was 98.77%, the “Day 3 content (%)” value stood at 99.69%, the “Day 7 content (%)” value came to 99.66% and the “Initial content (%)” value turned out to be 99.35%.

For the substance “Hyp-Gly-Gln-Asp-Gly-Leu-Ala (isopropyl ester) ([Hyp]GQDGLA-OiPr) [Example 108]”, the “Day 1 content (%)” value turned out to be 67.07%, the “Day 3 content (%)” value was 62.81%, the “Day 7 content (%)” value was 59.24% and the “Initial content (%)” value turned out to be 79.49%.

For the substance “Hyp-Gly-Gln-Asp-Gly (isopropyl ester) [Example 106]”, the “Day 1 content (%)” value was 81.47%, the “Day 3 content (%)” value turned out to be 75.61%, the “Day 7 content (%)” value is recorded as 68.25% and the “Initial content (%)” value worked out at 89.54%.

Consider “Asu-Gly-Leu-Ala-Gly-Pro-Lys ([Asu′]GLAGPK) [Example 105]”, for which the “Day 1 content (%)” value is recorded as 54.80%, the “Day 3 content (%)” value turned out to be 41.83%, the “Day 7 content (%)” value came to 31.24% and the “Initial content (%)” value is given as 89.11%.

“D Hyp-Gly-Gln-Asp-Gly-Leu-Ala ([dHyp]GQDGLA) [Example 50]”: the “Day 1 content (%)” value is 89.44%, the “Day 3 content (%)” value stood at 80.15%, the “Day 7 content (%)” value turned out to be 56.11% and the “Initial content (%)” value was 96.67%.

“4-methylene-Pro-Gly-Gln-Asp-Gly-Leu-Ala ([Pro(4-methylene)]GQDGLA) [Example 54]”: the “Day 1 content (%)” value is listed as 83.66%, the “Day 3 content (%)” value came to 73.59%, the “Day 7 content (%)” value is on record as 62.48% and the “Initial content (%)” value is 95.42%.

As to “Hyp-Gly-Gln-Asp-Val-Leu-Ala ([Hyp]GQDVLA) [Example 23]”, the “Day 1 content (%)” value is 95.25%, the “Day 3 content (%)” value turned out to be 94.22%, the “Day 7 content (%)” value is 90.56% and the “Initial content (%)” value was determined as 96.40%.

On to DGLAGPK [Example 19], for which the “Day 1 content (%)” value came out at 89.94%, the “Day 3 content (%)” value is reported as 79.26%, the “Day 7 content (%)” value is 71.50% and the “Initial content (%)” value turned out to be 95.90%.

Regarding “Hyp-Gly-Gln-Glu-Leu ([Hyp]GQEL) [Example 90]”, the “Day 1 content (%)” value was found to be 98.58%, the “Day 3 content (%)” value worked out at 98.32%, the “Day 7 content (%)” value worked out at 97.94% and the “Initial content (%)” value came out at 98.68%.

Consider “Pro-Gly-Gln-Asp-Gly (PGQDG) [Example 76]”, for which the “Day 1 content (%)” value turned out to be 90.01%, the “Day 3 content (%)” value was 82.34%, the “Day 7 content (%)” value was 69.13% and the “Initial content (%)” value is listed as 95.07%.

For QLGLAGPK [Example 18], the “Day 1 content (%)” value was 53.91%, the “Day 3 content (%)” value was 36.72%, the “Day 7 content (%)” value is given as 13.41% and the “Initial content (%)” value turned out to be 82.99%.

With “Hyp-Gly-Gln-Asp (isopropyl ester)-Gly-Leu (isopropyl ester) [Example 112]”, the “Day 1 content (%)” value came to 92.78%, the “Day 3 content (%)” value turned out to be 86.07%, the “Day 7 content (%)” value was 80.91% and the “Initial content (%)” value is recorded as 95.34%.

Consider “Hyp-Gly-Gln-Glu-Val-Leu ([Hyp]GQEVL) [Example 89]”, for which the “Day 1 content (%)” value is recorded as 99.07%, the “Day 3 content (%)” value came out at 98.81%, the “Day 7 content (%)” value was 98.43% and the “Initial content (%)” value is 99.57%.

Turning to “Hyp-Gly-Gln-His-Gly-Leu ([Hyp]GQHGL) [Example 82]”, the “Day 1 content (%)” value was found to be 92.51%, the “Day 3 content (%)” value was 85.09%, the “Day 7 content (%)” value stood at 79.04% and the “Initial content (%)” value is 97.54%.
